Test results published in US9527896B2, “Stabilized p53 peptides and uses thereof” (DANA-FARBER CANCER INSTITUTE, INC., priority 2007, dated 2016).
Bridge positions count the residues as written; N and C are the ends. Square brackets hold non-standard residues; d marks the D form. Peptide text beside a SMILES is read from it. R8 = C=CCCCCCC[C@@](C)(N)C(=O)O; S5 = C=CCCC[C@](C)(N)C(=O)O; βAla = NCCC(=O)O

Tests used:
circular dichroism = settings: water; pH 7.0; 20 °C; 10-50 uM
HDM2 = biological target: T1, HDM2 (Homo sapiens, UniProt Q00987); experiment: Kd (nM)
T1 construct: Co-Immunoprecipitation of FITC-SAH-p53 Peptides and Endogenous HDM2; endogenous in cells; host or cells: SJSA-1 osteosarcoma cells
From the text: The patent's description of the figure: FIGS. 1A-1F Synthesis, Sequence, and Biochemical Analysis of SAH-p53 Peptides. FIG. 1A Non-natural amino acids were synthesized as described and cross-linked by ruthenium-catalyzed ring-closing olefin metathesis. […] Note: UAH-p53-8 is the “unstapled” form of SAH-p53-8.

T1 sequence (Q00987 whole entry, looked up): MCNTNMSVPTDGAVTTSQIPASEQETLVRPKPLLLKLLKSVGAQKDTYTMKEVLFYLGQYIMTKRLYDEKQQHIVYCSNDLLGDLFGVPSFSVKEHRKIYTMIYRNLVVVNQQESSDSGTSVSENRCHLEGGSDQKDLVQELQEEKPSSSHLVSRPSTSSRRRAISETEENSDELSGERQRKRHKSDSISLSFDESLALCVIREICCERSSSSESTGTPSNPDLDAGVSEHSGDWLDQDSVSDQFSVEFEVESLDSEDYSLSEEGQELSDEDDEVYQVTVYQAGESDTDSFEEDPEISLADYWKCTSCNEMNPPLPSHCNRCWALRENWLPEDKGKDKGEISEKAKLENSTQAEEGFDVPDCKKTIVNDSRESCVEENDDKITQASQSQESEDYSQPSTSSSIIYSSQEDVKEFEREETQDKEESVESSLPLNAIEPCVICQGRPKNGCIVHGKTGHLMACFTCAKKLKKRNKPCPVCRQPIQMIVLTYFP
From the text for SJSA-1 cells: After washing with PBS, the cells were fixed in 4% paraformaldehyde, washed with PBS, and treated with DAPI-containing (nuclear counterstain) Vectashield mounting medium (Vector), coverslipped and imaged by confocal microscopy (BioRad 1024 or Nikon E800).

SMILES	helicity (circular dichroism)	cellular fluorescence (SJSA-1 cells)	Kd (HDM2)
CC(=O)NCCC(=O)N[C@@H](CCC(N)=O)C(=O)N[C@@H](CO)C(=O)N[C@@H](CCC(N)=O)C(=O)N[C@@H](CCC(N)=O)C(=O)N[C@H](C(=O)N[C@@H](C)C(=O)N[C@]1(C)CCCCCCC=CCCC[C@@](C)(C(=O)N[C@@H](CCC(N)=O)C(=O)N[C@@H](CC(N)=O)C(N)=O)NC(=O)[C@H](CC(C)C)NC(=O)[C@H](CC(C)C)NC(=O)[C@H](CCCNC(=N)N)NC(=O)[C@H](Cc2c[nH]c3ccccc23)NC(=O)[C@H](CC(C)C)NC(=O)[C@H](CC(N)=O)NC1=O)[C@@H](C)O [SAH-p53-8F19A] (Ac-[βAla]QSQQTA[R8]NLWRLL[S5]QN-NH2; staple 8-15; N-terminus and C-terminus assumed)	39%	Cellular fluorescence was observed	> 4000 nM
CC(=O)NCCC(=O)N[C@@H](CC(C)C)C(=O)N[C@@H](CO)C(=O)N[C@@H](CCC(N)=O)C(=O)N[C@]1(C)CCCCCCC=CCCC[C@@](C)(C(=O)N[C@@H](CC(C)C)C(=O)N[C@@H](CC(C)C)C(=O)N2CCC[C@H]2C(=O)N[C@@H](CCC(=O)O)C(=O)N[C@@H](CC(N)=O)C(N)=O)NC(=O)[C@H](Cc2c[nH]c3ccccc23)NC(=O)[C@H](CC(C)C)NC(=O)[C@H](CC(=O)O)NC(=O)[C@H](CO)NC(=O)[C@H](Cc2ccccc2)NC(=O)[C@H]([C@@H](C)O)NC1=O (Ac-[βAla]LSQ[R8]TFSDLW[S5]LLPEN-NH2; staple 5-12)	12%		
CC(=O)NCCC(=O)N[C@@H](CC(C)C)C(=O)N[C@@H](CO)C(=O)N[C@@H](CCC(N)=O)C(=O)N[C@@H](CCC(=O)O)C(=O)N[C@H](C(=O)N[C@@H](Cc1ccccc1)C(=O)N[C@@H](CO)C(=O)N[C@@H](CC(=O)O)C(=O)N[C@@H](CC(C)C)C(=O)N[C@@H](Cc1c[nH]c2ccccc12)C(=O)N[C@@H](CCCCN)C(=O)N[C@@H](CC(C)C)C(=O)N[C@@H](CC(C)C)C(=O)N1CCC[C@H]1C(=O)N[C@@H](CCC(=O)O)C(=O)N[C@@H](CC(N)=O)C(N)=O)[C@@H](C)O	11%		
CC(=O)NCCC(=O)N[C@@H](CC(C)C)C(=O)N[C@@H](CO)C(=O)N[C@@H](CCC(N)=O)C(=O)N[C@@H](CCC(=O)O)C(=O)N[C@H](C(=O)N[C@@H](Cc1ccccc1)C(=O)N[C@@H](CO)C(=O)N[C@@H](CC(=O)O)C(=O)N[C@]1(C)CCCCCCC=CCCC[C@@](C)(C(N)=O)NC(=O)[C@H](CCC(=O)O)NC(=O)[C@@H]2CCCN2C(=O)[C@H](CC(C)C)NC(=O)[C@H](CC(C)C)NC(=O)[C@H](CCCCN)NC(=O)[C@H](Cc2c[nH]c3ccccc23)NC1=O)[C@@H](C)O [SAH-p53-1] (Ac-[βAla]LSQETFSD[R8]WKLLPE[S5]-NH2; staple 10-17)	25%		100 ± 8 nM
CC(=O)NCCC(=O)N[C@@H](CC(C)C)C(=O)N[C@@H](CO)C(=O)N[C@@H](CCC(N)=O)C(=O)N[C@@H](CCC(=O)O)C(=O)N[C@H](C(=O)N[C@@H](Cc1ccccc1)C(=O)N[C@]1(C)CCCCCCC=CCCC[C@@](C)(C(=O)N[C@@H](CCC(N)=O)C(=O)N[C@@H](CC(N)=O)C(N)=O)NC(=O)[C@H](CC(C)C)NC(=O)[C@H](CC(C)C)NC(=O)[C@H](CCCCN)NC(=O)[C@H](Cc2c[nH]c3ccccc23)NC(=O)[C@H](CC(C)C)NC(=O)[C@H](CC(N)=O)NC1=O)[C@@H](C)O [SAH-p53-5] (Ac-[βAla]LSQETF[R8]NLWKLL[S5]QN-NH2; staple 8-15)	20%		0.8 ± 0.05 nM
C=CCCCCCC[C@@](C)(NC(=O)[C@H](Cc1ccccc1)NC(=O)[C@@H](NC(=O)[C@H](CCC(N)=O)NC(=O)[C@H](CCC(N)=O)NC(=O)[C@H](CO)NC(=O)[C@H](CCC(N)=O)NC(=O)CCNC(C)=O)[C@@H](C)O)C(=O)N[C@@H](CC(N)=O)C(=O)N[C@@H](CC(C)C)C(=O)N[C@@H](Cc1c[nH]c2ccccc12)C(=O)N[C@@H](CCCNC(=N)N)C(=O)N[C@@H](CC(C)C)C(=O)N[C@@H](CC(C)C)C(=O)N[C@@](C)(CCCC=C)C(=O)N[C@@H](CCC(N)=O)C(=O)N[C@@H](CC(N)=O)C(N)=O [UAH-p53-8, Ac-QSQQTF*NLWRKK*QN-NH2]	36%		
CC(=O)NCCC(=O)N[C@@H](CCC(N)=O)C(=O)N[C@@H](CO)C(=O)N[C@@H](CCC(N)=O)C(=O)N[C@@H](CCC(N)=O)C(=O)N[C@H](C(=O)N[C@@H](Cc1ccccc1)C(=O)N[C@]1(C)CCCCCCC=CCCC[C@@](C)(C(=O)N[C@@H](CCC(N)=O)C(=O)N[C@@H](CC(N)=O)C(N)=O)NC(=O)[C@H](CC(C)C)NC(=O)[C@H](CC(C)C)NC(=O)[C@H](CCCCN)NC(=O)[C@H](Cc2c[nH]c3ccccc23)NC(=O)[C@H](CC(C)C)NC(=O)[C@H](CC(N)=O)NC1=O)[C@@H](C)O [SAH-p53-7] (Ac-[βAla]QSQQTF[R8]NLWKLL[S5]QN-NH2; staple 8-15)	36%		50 ± 10 nM
CC(=O)NCCC(=O)N[C@@H](CC(C)C)C(=O)N[C@@H](CO)C(=O)N[C@@H](CCC(N)=O)C(=O)N[C@@H](CCC(=O)O)C(=O)N[C@]1(C)CCCCCCC=CCCC[C@@](C)(C(=O)N[C@@H](CC(C)C)C(=O)N2CCC[C@H]2C(=O)N[C@@H](CCC(=O)O)C(=O)N[C@@H](CC(N)=O)C(N)=O)NC(=O)[C@H](CCCCN)NC(=O)[C@H](Cc2c[nH]c3ccccc23)NC(=O)[C@H](CC(C)C)NC(=O)[C@H](CC(=O)O)NC(=O)[C@H](CO)NC(=O)[C@H](Cc2ccccc2)NC1=O (Ac-[βAla]LSQE[R8]FSDLWK[S5]LPEN-NH2; staple 6-13)	10%		
